From article PMC9561678

Biological target: phosphorylated JAK2 (UniProt O60674)
Assay: co-immunoprecipitation (IP p-JAK2, IB c-Mpl) with densitometry
Settings: HEK293T cells; 20 ng/mL TPO stimulation; parent: est. 1.3; read off a plot

Chain of UniProt O60674 (O60674 whole entry): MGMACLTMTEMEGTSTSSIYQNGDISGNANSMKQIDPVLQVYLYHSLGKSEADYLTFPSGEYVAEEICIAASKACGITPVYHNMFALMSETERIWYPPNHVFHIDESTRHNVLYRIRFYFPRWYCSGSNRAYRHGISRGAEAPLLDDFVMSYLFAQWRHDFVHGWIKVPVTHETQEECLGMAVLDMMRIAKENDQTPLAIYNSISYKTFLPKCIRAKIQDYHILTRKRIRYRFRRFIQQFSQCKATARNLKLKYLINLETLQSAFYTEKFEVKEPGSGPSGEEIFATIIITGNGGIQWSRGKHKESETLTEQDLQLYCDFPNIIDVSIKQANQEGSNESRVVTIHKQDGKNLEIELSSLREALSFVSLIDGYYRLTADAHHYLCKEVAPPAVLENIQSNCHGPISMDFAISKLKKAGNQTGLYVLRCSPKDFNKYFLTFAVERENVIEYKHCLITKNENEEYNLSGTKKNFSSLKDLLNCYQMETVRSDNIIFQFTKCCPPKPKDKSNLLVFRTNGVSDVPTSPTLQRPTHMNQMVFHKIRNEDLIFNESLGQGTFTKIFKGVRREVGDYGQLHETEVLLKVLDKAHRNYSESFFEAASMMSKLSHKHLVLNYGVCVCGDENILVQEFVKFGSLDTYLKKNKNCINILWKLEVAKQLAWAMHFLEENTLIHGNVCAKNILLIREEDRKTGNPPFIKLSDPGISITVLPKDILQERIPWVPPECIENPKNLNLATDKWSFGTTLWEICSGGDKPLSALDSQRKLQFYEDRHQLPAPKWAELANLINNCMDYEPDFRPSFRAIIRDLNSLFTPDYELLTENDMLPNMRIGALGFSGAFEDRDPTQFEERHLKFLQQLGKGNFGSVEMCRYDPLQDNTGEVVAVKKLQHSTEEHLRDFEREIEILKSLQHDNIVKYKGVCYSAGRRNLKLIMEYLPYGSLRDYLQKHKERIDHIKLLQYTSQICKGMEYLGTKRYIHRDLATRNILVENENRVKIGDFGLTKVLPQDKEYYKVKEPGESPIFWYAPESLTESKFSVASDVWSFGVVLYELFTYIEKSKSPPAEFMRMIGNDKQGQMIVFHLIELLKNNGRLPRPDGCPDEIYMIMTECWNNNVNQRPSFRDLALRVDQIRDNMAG

Substance | response
c-Mpl-del (c-Mpl alternative splicing isoform with a 24 amino acid deletion in the extracellular region) Y607F | 0.18
c-Mpl-del (c-Mpl alternative splicing isoform with a 24 amino acid deletion in the extracellular region) Y567F | 0.54
c-Mpl-del (c-Mpl alternative splicing isoform with a 24 amino acid deletion in the extracellular region) Y602F | 0.44
